In patent publication US20230110188A1 (ARGENX IIP, published 2023):

T1: Human MuSK (R&D Systems, cat. 10189-MK, histidine tag) (human, UniProt O15146 24-495)
T1 construct: Bought protein; also called human monomeric MuSK-6xhis; not shown: histidine tag (6xhis)
T1 sequence: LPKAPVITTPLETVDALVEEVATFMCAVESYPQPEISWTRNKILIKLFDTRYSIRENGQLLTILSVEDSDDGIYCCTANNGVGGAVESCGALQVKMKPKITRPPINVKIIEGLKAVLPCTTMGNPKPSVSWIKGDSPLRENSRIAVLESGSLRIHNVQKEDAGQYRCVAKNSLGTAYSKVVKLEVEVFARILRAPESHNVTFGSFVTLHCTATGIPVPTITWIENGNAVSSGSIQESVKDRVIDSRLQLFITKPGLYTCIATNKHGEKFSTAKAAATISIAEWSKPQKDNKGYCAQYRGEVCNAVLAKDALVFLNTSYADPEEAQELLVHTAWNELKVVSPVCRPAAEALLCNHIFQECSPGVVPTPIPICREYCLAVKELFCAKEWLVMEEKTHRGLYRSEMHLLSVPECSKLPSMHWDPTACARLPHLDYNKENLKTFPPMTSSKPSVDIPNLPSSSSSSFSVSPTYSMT

T2: human monomeric MuSK FLAG streptavidin (in house produced, batch 27-6-2019) (human, UniProt O15146 24-495)
T2 construct: also called full length MuSK; not shown: FLAG and streptavidin tags
T2 sequence: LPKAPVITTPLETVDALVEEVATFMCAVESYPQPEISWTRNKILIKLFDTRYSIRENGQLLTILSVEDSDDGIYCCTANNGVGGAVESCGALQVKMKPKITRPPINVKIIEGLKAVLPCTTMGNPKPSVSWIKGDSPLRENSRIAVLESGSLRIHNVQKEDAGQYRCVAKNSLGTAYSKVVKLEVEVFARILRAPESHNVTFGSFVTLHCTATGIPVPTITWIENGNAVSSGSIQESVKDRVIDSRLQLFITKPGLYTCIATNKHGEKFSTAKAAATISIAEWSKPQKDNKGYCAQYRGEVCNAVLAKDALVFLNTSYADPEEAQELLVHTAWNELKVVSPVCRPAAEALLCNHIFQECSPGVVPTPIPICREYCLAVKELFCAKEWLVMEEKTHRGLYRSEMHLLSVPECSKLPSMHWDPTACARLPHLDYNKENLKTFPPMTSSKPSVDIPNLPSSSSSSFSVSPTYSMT

B1: 3D10a (antibody, human IgG1, kappa, L234A L235A, V domains shown)
VH: EVQLVESGGGLVKPGGSLRLSCAASGFTFSASTMAWVRQAPGKGLEWVSSVSGDSHHIYYADSLKGRFTISRDNAKNSLYLQMNSLRAEDTAVYYCARERLLRLGVGFDSWGQGTLVTVSS
VL: DIQMTQSPSSLSASVGDRVTITCRASQRISGFVNWYQQKPGKAPKLLIYAASTLQSGVPSRFSGSGSGTDFTLTISSLQPEDFATYYCQQSYSPLYTFGQGTKLEIKR
B2: 4D3 (antibody, human IgG1, kappa, L234A L235A, V domains shown)
VH: EVQLVESGGGLVKPGGSLRLSCAASGFTFSSYTMTWVRQAPGKGLEWVSSISSGGHYIYYTDSLKGRFTISRDNAKNSLYLQMNSLRAEDTAVYYCARERLLRLGVGFDFWGQGTLVTVSS
VL: DIQMTQSPSSLSASVGDRVTITCRASQSISGYLNWYQQKPGKAPKLLIYAASTLQSGVPSRFSGSGSGTDFTLTISSLQPEDFATYYCQQSYSALYTFGQGTKLEIKR
B3: 3F6c (antibody, human IgG1, kappa, L234A L235A, V domains shown)
VH: EVQLVESGGGLVKPGGSLRLSCAASGFTFSSYTMDWVRQAPGKGLEWVSSIGSNGDYIYYADSVRGRFTISRDNAKNSLYLQMNSLRAEDTAVYYCARGQLAVAGTHFDYWGQGTLVTVSS
VL: DIQMTQSPSSLSASVGDRVTITCRASQKVNKYVNWYQQKPGKAPKLLIYAASTLQSGVPSRFSGSGSGTDFTLTISSLQPEDFATYYCQQSYSPLSTFGQGTKLEIKR
B4: 3D9b (antibody, human IgG1, kappa, L234A L235A, V domains shown)
VH: EVQLVESGGGLVKPGGSLRLSCAASGFTFSTYTMHWVRQAPGKGLEWVSSISSRSAYKYYADSVKGRFTISRDNAKNSLYLQMNSLRAEDTAVYYCARDFFQLGPPRFDSWGQGTLVTVSS
VL: DIQMTQSPSSLSASVGDRVTITCRASQRISSFLNWYQQKPGKAPKLLIYGASNLQSGVPSRFSGSGSGTDFTLTISSLQPEDFATYYCQQSYSPSYTFGQGTKLEIKR

Key:
[1] = molecular target: T1, Human MuSK (R&D Systems, cat. 10189-MK, …); test: SPR (Biacore), pH 5.5 (summary table, repeats the average of Table 17)
Source text: (§1) In order to study pH dependent binding of our antibodies to MuSK, the Biacore was used with the same setup as described in the paragraph entitled “Binding affinity for mouse, human and rhesus monkey recombinant MuSK in Biacore”. 6. […] For the other antibodies there is no real difference observed between pH 7.4 and 5.5.

[2] = molecular target: T1, Human MuSK (R&D Systems, cat. 10189-MK, …); test: SPR (Biacore), MuSK-coated chip, antibody alone (run of first antibody 3F6c)
Description: (§2) A chip was coated with ˜5000 RU of human MuSK (Lot nr DHUCO 11908A, batch nr 1089_MK). In a first experiment the saturating concentration of the pre-leads was determined. This is the concentration where the amplitude of a specific pre-lead doesn't increase anymore when additional pre-lead is injected on the immobilized MuSK.

[3] = molecular target: T1, Human MuSK (R&D Systems, cat. 10189-MK, …); test: SPR (Biacore), MuSK-coated chip presaturated with 500 nM 4D3 (competitor)
Description: as §2

[4] = molecular target: T2, human monomeric MuSK FLAG streptavidin …; test: epitope binning ELISA (coated anti-MuSK Fab, MuSK, IgG, anti-Fc HRP); competitor: 3D9b
Description: (§3) For epitope binning—An ELISA plate was coated at 1 μg/ml of the anti-MuSK Fabs and incubated overnight at 4° C. Next, the plate was wash with PBS followed by blocking with 1% casein in PBS for one hour. After washing the plate, 1 μg/ml of human monomeric MuSK (in house produced, batch 27-6-2019) was incubated for one hour at RT. The plate was washed and anti-MuSK antibodies at 0.3-10 μg/ml were added to the plate and incubated for one hour at RT. After washing the plate, detection antibody (goat anti-human Fc HRP (Jackson Immunoresearch cat. 109-035-098)) was added at 5000 fold dilution in PBS 0.1% casein. The plate was incubated for one hour at RT and washed with PBS-T. TMB was added and the reaction was stopped by adding H2504. […]
(§4) For the epitope binning ELISA, a plate was coated with anti-MuSK Fab and human monomeric MuSK was added after blocking the plate. Next the different antibodies were added and allowed to bind.

[5] = molecular target: T2, human monomeric MuSK FLAG streptavidin …; test: epitope binning ELISA (coated anti-MuSK Fab, MuSK, IgG, anti-Fc HRP); competitor: 3D10a
Description: as §3, §4

[6] = molecular target: T1, Human MuSK (R&D Systems, cat. 10189-MK, …); test: SPR (Biacore), antibody captured on anti-hFc chip; average of 0.3125-10 nM; dissociation pH 5.5
Source text: as §1

[7] = molecular target: T1, Human MuSK (R&D Systems, cat. 10189-MK, …); test: SPR (Biacore), MuSK-coated chip, antibody alone (run of first antibody 3D10a)
Description: as §2

[8] = molecular target: T1, Human MuSK (R&D Systems, cat. 10189-MK, …); test: SPR (Biacore), antibody captured on anti-hFc chip; 0.3125 nM; dissociation pH 7.4
Source text: as §1

[9] = molecular target: T1, Human MuSK (R&D Systems, cat. 10189-MK, …); test: SPR (Biacore), pH 7.4 (summary table, repeats the average of Table 16)
Source text: as §1

Binder	koff [1] [s⁻¹]	amplitude of prelead without presaturating MuSK (RU) [2] [RU]	amplitude of prelead after presaturating MuSK (RU) [3] [RU]	extra amplitude (%) [3] [%]	normalized extra amplitude (%) [3] [%]	OD 450 nm [4] [OD]	OD 450 nm [5] [OD]	koff [6] [s⁻¹]	amplitude of prelead without presaturating MuSK (RU) [7] [RU]	koff [8] [s⁻¹]	koff [9] [s⁻¹]
B1	9e-05	2370	68	7.2	1.9	0.115	0.049	9e-05	3130	0.00018	
B2	0.00016	2390	45	5.2	0	0.061	0.008	0.00016	2620	0.00013	0.00014
B3	0.0002	3640	59	5.8	0.6	0.133	0.057	0.0002	2510	0.00015	8e-05
B4	4e-05	1660	163	14.9	9.6	0.15	0.06	4e-05	2110	0.00018	0.00012
